Data on eight molecules can be found in paper PMC4100928, “Evolutionary Divergence in the Catalytic Activity of the CAM-1, ROR1 and ROR2 Kinase Domains” (PLoS ONE, 2014).

Series [1] addresses T1, ROR1 ICD (Homo sapiens, UniProt Q01973, C482G).
T1 sequence (Q01973 428-937 C482G): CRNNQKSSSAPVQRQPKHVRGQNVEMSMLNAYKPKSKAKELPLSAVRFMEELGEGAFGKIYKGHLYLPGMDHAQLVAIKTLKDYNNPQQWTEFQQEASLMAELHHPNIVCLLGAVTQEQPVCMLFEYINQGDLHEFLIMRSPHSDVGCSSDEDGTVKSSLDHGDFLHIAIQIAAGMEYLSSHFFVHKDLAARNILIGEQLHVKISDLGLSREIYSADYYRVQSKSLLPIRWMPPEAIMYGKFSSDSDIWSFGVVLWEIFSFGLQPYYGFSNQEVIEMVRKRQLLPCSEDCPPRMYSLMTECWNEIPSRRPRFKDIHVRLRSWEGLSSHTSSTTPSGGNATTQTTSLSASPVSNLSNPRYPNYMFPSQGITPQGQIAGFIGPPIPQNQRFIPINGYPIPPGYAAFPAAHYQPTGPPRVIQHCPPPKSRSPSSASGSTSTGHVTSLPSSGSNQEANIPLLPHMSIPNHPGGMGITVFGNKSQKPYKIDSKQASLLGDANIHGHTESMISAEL
Description: [gamma-32P]ATP phosphocellulose paper binding assay, initial rates. The following applies: 20 mM Mg2+ or 5 mM Mn2+; 5 mM activation loop peptide; 20 °C; limit of assay. The format is biochemical. An excerpt:
(§1) [gamma-32P]ATP phosphocellulose paper binding assay, initial rates on ROR1 ICD

The target in series [2] is T2, ROR1 ICD (Homo sapiens, UniProt Q01973).
T2 sequence (Q01973 428-937): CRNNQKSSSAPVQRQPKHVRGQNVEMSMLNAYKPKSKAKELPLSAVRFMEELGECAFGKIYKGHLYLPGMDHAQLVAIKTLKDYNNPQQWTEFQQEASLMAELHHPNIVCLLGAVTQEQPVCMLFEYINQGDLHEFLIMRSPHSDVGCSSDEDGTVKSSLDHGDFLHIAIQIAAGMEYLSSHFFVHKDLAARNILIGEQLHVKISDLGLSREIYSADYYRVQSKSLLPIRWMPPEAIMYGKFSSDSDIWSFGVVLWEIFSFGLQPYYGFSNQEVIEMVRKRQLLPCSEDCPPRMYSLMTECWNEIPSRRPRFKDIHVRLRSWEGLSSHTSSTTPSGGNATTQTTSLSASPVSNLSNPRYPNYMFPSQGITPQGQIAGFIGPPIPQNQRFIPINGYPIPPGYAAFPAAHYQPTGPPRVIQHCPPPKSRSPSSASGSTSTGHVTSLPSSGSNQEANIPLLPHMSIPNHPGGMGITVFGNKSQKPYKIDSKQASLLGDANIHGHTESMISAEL
Described as above. The series is classed as biochemical. The following applies: 20 mM Mg2+ or 5 mM Mn2+; 5 mM activation loop peptide; 20 °C; limit of assay.
Text: as §1

For series [3], the target named is T3, MuSK ICD (Homo sapiens, UniProt O15146).
T3 sequence (O15146 519-869): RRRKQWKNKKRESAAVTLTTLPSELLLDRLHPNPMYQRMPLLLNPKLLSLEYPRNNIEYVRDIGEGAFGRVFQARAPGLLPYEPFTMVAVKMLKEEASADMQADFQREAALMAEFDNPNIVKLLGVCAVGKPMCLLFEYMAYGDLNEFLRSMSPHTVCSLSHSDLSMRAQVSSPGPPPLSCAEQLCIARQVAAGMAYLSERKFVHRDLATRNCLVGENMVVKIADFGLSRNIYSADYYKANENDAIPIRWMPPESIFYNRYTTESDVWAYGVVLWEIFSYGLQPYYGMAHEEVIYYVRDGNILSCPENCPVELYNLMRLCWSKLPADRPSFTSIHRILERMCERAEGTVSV
Description: autophosphorylation, anti-phosphotyrosine immunoblot. Conditions: 2 mM ATP, 20 mM MgCl2, 0.2 mM orthovanadate, about 18 h at 4 °C. The series is classed as biochemical. Background: Immunoblotting shows a protein as a band on a membrane.

Substrate in series [4]: Nc1ncnc2c1ncn2[C@@H]1O[C@H](COP(=O)(O)OP(=O)(O)OP(=O)(O)O)[C@@H](O)[C@H]1O
As to the kind of experiment: [gamma-32P]ATP phosphocellulose paper binding assay, initial rates. The format is biochemical, Caenorhabditis elegans. Conditions: 5 mM activation loop peptide, 20 °C. From the text:
[gamma-32P]ATP phosphocellulose paper binding assay, initial rates on CAM-1 ICD

Substrate in series [5]: Nc1ncnc2c1ncn2[C@@H]1O[C@H](COP(=O)(O)OP(=O)(O)OP(=O)(O)O)[C@@H](O)[C@H]1O
The series is described as above. The format is biochemical, Homo sapiens. The following applies: 20 mM Mg2+ or 5 mM Mn2+, 5 mM activation loop peptide, 20 °C, limit of assay. From the text: [gamma-32P]ATP phosphocellulose paper binding assay, initial rates on ROR2 ICD

The mark [6] stands for this setting: 20 mM Mg2+ or 5 mM Mn2+, limit of assay.
Where [7] appears, read: phosphorylated enzyme (pre-incubated with ATP/Mg2+) 10 µM, 20 mM Mg2+.
[8] abbreviates: unphosphorylated enzyme 10 µM, 20 mM Mg2+.

For the molecule `Nc1ncnc2c1ncn2[C@@H]1O[C@H](COP(=O)(O)OP(=O)(O)OP(=O)(O)O)[C@@H](O)[C@H]1O` [ATP], the Km in series [1] and in series [2] was greater than 15 mM each time. For the same molecule, in series [3], the “autophosphorylation, anti-phosphotyrosine immunoblot” value was “ICDs of receptors ROR1, ROR2, CAM-1 and MuSK were incubated overnight”.

B1: CAM-1 ICD (Caenorhabditis elegans; K624R) (protein)
chain: RAKKKSQKTRHQNAHCSSAPSVINSAANSAYYRKLNGTSTPIMGRVPPHVEMTSLLPSAQHLGPPPYPMDQHLQQARRFPSQEPIDDNSYKVFEITPSQLSVREKIGEGQFGVVHSGIYTSGLFAPEPMAVAVRKCRHDATNAERAQLEQEIRAVATFDHPNVIKLIGVCYMDNSLLAVFEYMVHGDLHELLKVRVPPADHDMGGITEANAEFLYIATQIALGMEYLASMSFVHRDLATRNCLVGDTRTIKIADFGLMRTSYGSDYYKMLHRSWMPVRWMSKEAIEQGRFSEASDVWSFGVTLWEIWSFGRQPYEGASNQQVIELVANRHLLECPHNCPTNIYSLMVECWHENIERRPTFSEIRSRLQSWSLASPAHSILQQHNNRAGSHSGSSGAGRPPTHQRGYPSQKLHRRVEGASPLMKRHDANYAYSEDGDSD
Consider B1, for which, in series [4] (20 mM Mg2+), the Km came to 6.69 ± 1.12 mM, the kcat came to 0.00333 ± 0.00033 s⁻¹ and the kcat/Km was determined as 0.5 M⁻¹ s⁻¹.

B2: CAM-1 ICD (Caenorhabditis elegans; G599D) (protein)
chain: RAKKKSQKTRHQNAHCSSAPSVINSAANSAYYRKLNGTSTPIMGRVPPHVEMTSLLPSAQHLGPPPYPMDQHLQQARRFPSQEPIDDNSYKVFEITPSQLSVREKIGEDQFGVVHSGIYTSGLFAPEPMAVAVKKCRHDATNAERAQLEQEIRAVATFDHPNVIKLIGVCYMDNSLLAVFEYMVHGDLHELLKVRVPPADHDMGGITEANAEFLYIATQIALGMEYLASMSFVHRDLATRNCLVGDTRTIKIADFGLMRTSYGSDYYKMLHRSWMPVRWMSKEAIEQGRFSEASDVWSFGVTLWEIWSFGRQPYEGASNQQVIELVANRHLLECPHNCPTNIYSLMVECWHENIERRPTFSEIRSRLQSWSLASPAHSILQQHNNRAGSHSGSSGAGRPPTHQRGYPSQKLHRRVEGASPLMKRHDANYAYSEDGDSD
On to B2, for which, in series [4] (setting [6]), the kcat is less than 8.3e-06 s⁻¹ and the kcat/Km is less than 0.0005 M⁻¹ s⁻¹.

B3: CAM-1 ICD (Caenorhabditis elegans) (protein)
chain: RAKKKSQKTRHQNAHCSSAPSVINSAANSAYYRKLNGTSTPIMGRVPPHVEMTSLLPSAQHLGPPPYPMDQHLQQARRFPSQEPIDDNSYKVFEITPSQLSVREKIGEGQFGVVHSGIYTSGLFAPEPMAVAVKKCRHDATNAERAQLEQEIRAVATFDHPNVIKLIGVCYMDNSLLAVFEYMVHGDLHELLKVRVPPADHDMGGITEANAEFLYIATQIALGMEYLASMSFVHRDLATRNCLVGDTRTIKIADFGLMRTSYGSDYYKMLHRSWMPVRWMSKEAIEQGRFSEASDVWSFGVTLWEIWSFGRQPYEGASNQQVIELVANRHLLECPHNCPTNIYSLMVECWHENIERRPTFSEIRSRLQSWSLASPAHSILQQHNNRAGSHSGSSGAGRPPTHQRGYPSQKLHRRVEGASPLMKRHDANYAYSEDGDSD
As for B3, in series [4] (setting [7]), the Km came to 3.35 ± 0.57 mM, the kcat came out at 0.0422 ± 0.003 s⁻¹ and the kcat/Km came out at 12.7 M⁻¹ s⁻¹. Also, in series [4] (setting [8]), the Km is 3.53 ± 0.34 mM, the kcat came out at 0.0438 ± 0.00183 s⁻¹ and the catalytic efficiency (kcat/Km) came out at 12.5 M⁻¹ s⁻¹.

B4: CAM-1 ICD (Caenorhabditis elegans; G599C) (protein)
chain: RAKKKSQKTRHQNAHCSSAPSVINSAANSAYYRKLNGTSTPIMGRVPPHVEMTSLLPSAQHLGPPPYPMDQHLQQARRFPSQEPIDDNSYKVFEITPSQLSVREKIGECQFGVVHSGIYTSGLFAPEPMAVAVKKCRHDATNAERAQLEQEIRAVATFDHPNVIKLIGVCYMDNSLLAVFEYMVHGDLHELLKVRVPPADHDMGGITEANAEFLYIATQIALGMEYLASMSFVHRDLATRNCLVGDTRTIKIADFGLMRTSYGSDYYKMLHRSWMPVRWMSKEAIEQGRFSEASDVWSFGVTLWEIWSFGRQPYEGASNQQVIELVANRHLLECPHNCPTNIYSLMVECWHENIERRPTFSEIRSRLQSWSLASPAHSILQQHNNRAGSHSGSSGAGRPPTHQRGYPSQKLHRRVEGASPLMKRHDANYAYSEDGDSD
Regarding B4, in series [4] (setting [6]), the kcat was less than 8.3e-06 s⁻¹ and the kcat/Km was less than 0.0005 M⁻¹ s⁻¹.

B5: CAM-1 ICD (Caenorhabditis elegans; D744N) (protein)
chain: RAKKKSQKTRHQNAHCSSAPSVINSAANSAYYRKLNGTSTPIMGRVPPHVEMTSLLPSAQHLGPPPYPMDQHLQQARRFPSQEPIDDNSYKVFEITPSQLSVREKIGEGQFGVVHSGIYTSGLFAPEPMAVAVKKCRHDATNAERAQLEQEIRAVATFDHPNVIKLIGVCYMDNSLLAVFEYMVHGDLHELLKVRVPPADHDMGGITEANAEFLYIATQIALGMEYLASMSFVHRDLATRNCLVGDTRTIKIANFGLMRTSYGSDYYKMLHRSWMPVRWMSKEAIEQGRFSEASDVWSFGVTLWEIWSFGRQPYEGASNQQVIELVANRHLLECPHNCPTNIYSLMVECWHENIERRPTFSEIRSRLQSWSLASPAHSILQQHNNRAGSHSGSSGAGRPPTHQRGYPSQKLHRRVEGASPLMKRHDANYAYSEDGDSD
For B5, in series [4] (setting [6]), the kcat is less than 8.3e-06 s⁻¹ and the kcat/Km was less than 0.0005 M⁻¹ s⁻¹.

B6: ROR2 ICD (Homo sapiens) (protein)
chain: CRNKQKASASTPQRRQLMASPSQDMEMPLINQHKQAKLKEISLSAVRFMEELGEDRFGKVYKGHLFGPAPGEQTQAVAIKTLKDKAEGPLREEFRHEAMLRARLQHPNVVCLLGVVTKDQPLSMIFSYCSHGDLHEFLVMRSPHSDVGSTDDDRTVKSALEPPDFVHLVAQIAAGMEYLSSHHVVHKDLATRNVLVYDKLNVKISDLGLFREVYAADYYKLLGNSLLPIRWMAPEAIMYGKFSIDSDIWSYGVVLWEVFSYGLQPYCGYSNQDVVEMIRNRQVLPCPDDCPAWVYALMIECWNEFPSRRPRFKDIHSRLRAWGNLSNYNSSAQTSGASNTTQTSSLSTSPVSNVSNARYVGPKQKAPPFPQPQFIPMKGQIRPMVPPPQLYVPVNGYQPVPAYGAYLPNFYPVQIPMQMAPQQVPPQMVPKPSSHHSGSGSTSTGYVTTAPSNTSMADRAALLSEGADDTQNAPEDGAQSTVQEAEEEEEGSVPETELLGDCDTLQVDEAQVQLEA
For B6, in series [5], the kcat was less than 8.3e-06 s⁻¹ and the kcat/Km was less than 0.0005 M⁻¹ s⁻¹.

B7: ROR2 ICD (Homo sapiens; D482G) (protein)
chain: CRNKQKASASTPQRRQLMASPSQDMEMPLINQHKQAKLKEISLSAVRFMEELGEGRFGKVYKGHLFGPAPGEQTQAVAIKTLKDKAEGPLREEFRHEAMLRARLQHPNVVCLLGVVTKDQPLSMIFSYCSHGDLHEFLVMRSPHSDVGSTDDDRTVKSALEPPDFVHLVAQIAAGMEYLSSHHVVHKDLATRNVLVYDKLNVKISDLGLFREVYAADYYKLLGNSLLPIRWMAPEAIMYGKFSIDSDIWSYGVVLWEVFSYGLQPYCGYSNQDVVEMIRNRQVLPCPDDCPAWVYALMIECWNEFPSRRPRFKDIHSRLRAWGNLSNYNSSAQTSGASNTTQTSSLSTSPVSNVSNARYVGPKQKAPPFPQPQFIPMKGQIRPMVPPPQLYVPVNGYQPVPAYGAYLPNFYPVQIPMQMAPQQVPPQMVPKPSSHHSGSGSTSTGYVTTAPSNTSMADRAALLSEGADDTQNAPEDGAQSTVQEAEEEEEGSVPETELLGDCDTLQVDEAQVQLEA
Take B7: in series [5], the kcat is less than 8.3e-06 s⁻¹ and the kcat/Km was less than 0.0005 M⁻¹ s⁻¹.

The Km is the concentration of substrate that gives half-maximal velocity. As usually defined, the kcat is the maximal rate divided by the concentration of active sites. Broadly, the kcat/Km is the second-order rate constant that governs catalysis at low substrate concentration.
